Ends that are not written are not given here.
B1: rabbit monoclonal anti-CD95L antibody clone 145-12 (antibody, V domains shown)
VH: QSLEESGGDLVKPGASLTLTCTASGFSFSSGYDMCWVRQAPGKGLEWIACIDTDNDATYYASWAKGRFTISKPSSTTVLLQITSLTAADTATYFCATTHGDYVAFKLWGPGTLVTVSS
VL: QVLTQTASSVSAAVGGTVTINCQSSQSVYKNNDLSWYQQKPRQPPKLLIYQASKLASGVPSRFKGSGSGTQFTLTIGDLECDDGATYYCAGGYTASIYAFGGGTEVVVKG
notes: Rabbit monoclonal IgG from a hybridoma subclone; Only VH and VL are tied to the clone by name; also called mAB145-12; mAb145-12
B2: rabbit monoclonal anti-CD95L antibody clone 119-4 (antibody, V domains shown)
VH: QSLEESGGDLVKPGGTLTLTCTTSGFSFSDHYWMCWVRQAPGKGLEWIACIYTADSDSYYASWAKGRFTISKTSSTTVTLQMTSLTAADTATYFCARNGAYAGGPYGDLWGPGTLVTVSS
VL: DIVMTQTPSSVEAAVGGTVTIKCQASQSIRTSLVWYQQKPGQPPKLLIYKASDLPSGVPSRFKGSGSGTQFTLTISDLECADAATYYCQSYDFRDTINNGHSFGGGTEVVVKG
notes: Rabbit monoclonal IgG from a hybridoma subclone, detected with anti-rabbit IgG; Only VH and VL are tied to the clone by name; also called mAb119-4

Key:
peptide C-YMRNSKY = molecular target: T1, peptide C-YMRNSKY (also: immobilized to BSA or ovalbumin); experiment: peptide ELISA, peptide on BSA or ovalbumin coated
T1 construct: Printed as 'C-YMRNSKY'; the leading C is read as an added cysteine
T1 peptide: CYMRNSKY
Description: (§1) Binding of the rabbit monoclonal antibody was detected by incubation with goat anti rabbit IgG-Peroxidase (Sigma; dilution 1:5000) and subsequent detection of the converted Peroxidase-substrate TMBone at a wavelength of 450 nm in an ELISA reader (FIG. 13).
Binding of the rabbit monoclonal antibody was detected by incubation with goat anti rabbit IgG-Peroxidase (Sigma; dilution 1:5000) and subsequent detection of the converted Peroxidase-substrate TMBone at a wavelength of 450 nm in an ELISA reader (FIG. 14).

APG293 (human CD95L-T4) = molecular target: T2, APG293 (human CD95L-T4) (human); experiment: cell-based or functional assay
T2 chain: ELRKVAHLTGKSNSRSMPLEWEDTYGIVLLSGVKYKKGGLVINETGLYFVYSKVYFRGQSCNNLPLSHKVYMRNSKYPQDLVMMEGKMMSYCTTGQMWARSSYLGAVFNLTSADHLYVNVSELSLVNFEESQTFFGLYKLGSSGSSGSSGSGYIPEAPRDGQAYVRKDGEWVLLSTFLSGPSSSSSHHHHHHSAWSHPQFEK

[1] = molecular target: T3, epitope-comprising peptide YMRNSKYPQD (also: coupled to BSA); experiment: QCM (Attana A100), peptide-BSA immobilized, antibody as analyte
T3 peptide: YMRNSKYPQD
Description: The A100 allows to investigate molecular interactions in real-time based on the Quartz Crystal Microbalance (QCM) technique. For this purpose, the respective epitope comprising peptide was coupled to BSA and subsequently immobilized to the surface of a carboxyl-activated QCM-chip. […] Binding (kₒₙ) and dissociation (koff) was analyzed in real time, and the respective KD was calculated (see table in FIG. 16).

[2] = molecular target: T4, APG296 (human CD95L-RB69) (human); experiment: ELISA, APG296 coated
T4 construct: also called recombinant CD95L; human CD95L (APG296)
T4 chain: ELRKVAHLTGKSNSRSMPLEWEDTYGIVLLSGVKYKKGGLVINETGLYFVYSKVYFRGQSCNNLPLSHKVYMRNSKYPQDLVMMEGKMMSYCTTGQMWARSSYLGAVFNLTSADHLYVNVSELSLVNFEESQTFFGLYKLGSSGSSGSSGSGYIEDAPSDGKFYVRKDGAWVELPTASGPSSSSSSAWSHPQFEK

[3] = molecular target: T5, epitope-comprising peptide YMRNSKYPQD (also: coupled to BSA); experiment: QCM; immobilized BSA-coupled peptide
T5 peptide: YMRNSKYPQD

APG707 (LIGHT-RB69) = molecular target: T6, APG707 (LIGHT-RB69) (human); experiment: competition ELISA, APG296 coated, APG707 as soluble competitor
T6 construct: Structurally related TNF-superfamily protein with the same trimerisation scaffold as APG296; also called human LIGHT (APG707)
T6 chain: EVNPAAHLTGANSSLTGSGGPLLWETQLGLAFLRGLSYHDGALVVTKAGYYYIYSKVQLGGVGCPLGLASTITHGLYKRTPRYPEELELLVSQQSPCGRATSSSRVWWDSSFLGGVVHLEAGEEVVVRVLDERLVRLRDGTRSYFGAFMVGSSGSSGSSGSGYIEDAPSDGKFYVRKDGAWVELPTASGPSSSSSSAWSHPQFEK
Description: as §1, with “For the competition ELISA, 96-well microtiter plates were coated with 10 μg/ml APG296 (CD95L-RB69). […] Binding” for “Binding”, “antibodies” for “antibody”, “6).” for “13).”

Row | Binder | binding result (peptide C-YMRNSKY) | EC50, Assay 1: antagonism of CD95L-T4-induced apoptosis on Jurkat A3 cells (APG293 (human CD95L-T4)) [µg/mL] | EC50, Assay 2: antagonism of CD95L-T4-induced apoptosis on Jurkat A3 cells (APG293 (human CD95L-T4)) [µg/mL] | EC50, Assay 3: antagonism of CD95L-T4-induced apoptosis on Jurkat A3 cells (APG293 (human CD95L-T4)) [µg/mL] | EC50, Assay 4: antagonism of CD95L-T4-induced apoptosis on Jurkat A3 cells (APG293 (human CD95L-T4)) [µg/mL] | EC50, Mean: antagonism of CD95L-T4-induced apoptosis on Jurkat A3 cells (APG293 (human CD95L-T4)) [µg/mL] | binding result [1] | binding result [2] | Kd [3] [nM] | binding result (APG707 (LIGHT-RB69))
1 | B1 | no binding (tested: 2 µg/ml) | 0.187 | 0.198 | 0.225 | 0.192 | 0.201 | binds | binds | 7.22 | no binding (tested: 100 µg/ml)
2 | B2 | no binding (tested: 2 µg/ml) | – | – | – | – | – | binds | – | 1.2 | no binding (tested: 100 µg/ml)

— US20180208664A1 (APOGENIX, published 2018)
